Measurements taken from the nanobody polyreactivity screen of Harvey et al. (2022).

experiment: yeast display, Sf9 membrane polyspecificity reagent, FACS + sequencing; frameworks hold sequencing errors
How it was run: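 Nanobodies came from a synthetic yeast display library in Saccharomyces cerevisiae BJ5465, induced with galactose for 36–48 hours and stained for 1 hour at 4 °C with 10% biotinylated, detergent-solubilized Sf9 membrane reagent. Cells were enriched on streptavidin microbeads and then FACS-sorted, with low and high (top ~1%) gates set on anti-HA fluorescence for expression and streptavidin fluorescence for reagent binding. Each polyreactivity label reflects the gate a clone came from. Genes were amplified by colony PCR, sequenced by MiSeq 2 × 250 and filtered by CDR length.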

Sequence | polyreactivity (PSR sort gate)
QVQLVESGGGFVQAGGSLRLSCAASGSTFKTYTLGWYRQAPGKDRELVAGITSGGSTSYADSVKGRFTISRDNAKNTVYLQMNSLKPEATAVYYCNADAYLVIYFYTVRDYGYDYWGQGTQVTVSS | low polyreactivity
QVQLVESGGGFVQAGGSLRLSCAASGSTFRWNAMGWYRHAPGKERELDASITAGGSTNYADSVKGRFTISRDNAKNTVYLQINSLTPEDTAVYYCNADVRRSTYYVWLYDYWGQGTQVTVSS | low polyreactivity
QVQLVESGGGFVQAGGSLRLTCAASGRTFAKNTMGWYRQAPGKERELVAAITWRGGTTYYADSVKGRVTISRDNAKNTVYLQMNSLKPEDTAVYYCAKDRYYGYFRSRSDYWGQGTQVTVSS | high polyreactivity
QVQLVESGGGFVQAGGSRRLSCAASGRIFDDNAMGGYRPAPGKERELVAAISSGDYTKYADSVKGRFTISRDNSKNSVYLQMNSLKPEDTAVYYCAADIVSDSFYQPEYDYWGQGTQVTVSS | low polyreactivity
QVQLVESGGGIFQAGGSLRLSCAASGFTFQYYAMGWYRQAPGKERELVAAISRRGGRTDYADSVKGRFTISRDNAKNTVYLQMNSLKPEDTAVYYCAAAVASPYDYWGLGTQVTVSS | high polyreactivity
QVQLVESGGGIVQAGCSLRLSCAASGFTFERYTMGWYRQAPGKERELVATISRRSGRTSYADSVKGRFTISRDNAKNTVYLQMNSLNPEDTAVYYCAVDDAYPDRYDYWGQGTQVTVSS | high polyreactivity
QVQLVESGGGIVQAGGILRLSCAASGSTFAGNGMGWYRQAPGKERELVAGIDVTGGSKYYADSVKGRYTISRDNAKNTVYLQMNSLKPEDTAVFDCNARYVYHSSFAGFDYWGQGTQVTVSS | low polyreactivity
QVQLVESGGGIVQAGGRLRKSCAASGRTFDSNAMGWYRQAPGKERELVAGISESGGSTYYADSVKGRFTISRDNAKNTVYLQMNSLKPEDTAVYYCDYSGITVYYHRAVDFIVSYDYWGQGTQVTVSS | low polyreactivity
QVQLVESGGGIVQAGGRLRLSWAASGNTFDYYAMGWYRQAPWKERELVAAITRGGSTNYADSVKGRFTISRDNAKNTVYLQRNSRKPEDTAVYYCAAEQRAPRGADDDYCGQGTQVTVSS | low polyreactivity
QVQLVESGGGIVQAGGSIRLRCAASGIIFVVNDMGWYRQAPGKERELVADISDSGGSTNYADSVKGRFTISRDNAKNTVYLQMNRLKPEDTAVYYCAADSADPTEYDYWGQGSQVTVSS | low polyreactivity
QVQLVESGGGIVQAGGSLRISCAASGFIFSSYDMGWYRQAPGKERELVAAITWSGGSTYYADSVKARFTISRDNAKNTVYLHMNSLKPEDTAVYYCNAYPYYLVRNMDSWGQGTQVTVSS | high polyreactivity
QVQLVESGGGIVQAGGSLRISCAASGYTFKWYDMGWYRQAPGKEWELVASISWRGGSTYYADSVKGRYTISRDNAKNTVYFQMNSLKPEDTAVYYCAASLWPDYEYDYWGQGTQVTVSS | low polyreactivity
QVQLVESGGGIVQAGGSLRISFAASGFTFLGNAMGWYRQEPGKERELVARISTRGGTTYYADSVKGRFTISRDNAKYTVYFQMNRLKPEDTAVYYCAKKYYLYSPYRTGYDYWGQGTQVTVSS | high polyreactivity
QVQLVESGGGIVQAGGSLRLICAASGLILYGYTMGWYRQAPGKDRQLVAAISRGGGGTYYADSVKGRFTISRDNVKNTVYLQINSLKPEDTAVYYCAAYVYSLGGEYFYWGQGTLVTVSS | high polyreactivity
QVQLVESGGGIVQAGGSLRLRCAASGSIISVYAMGWYRQAPGKERELLDGITISGGRTYYADSVKGRFTISRDYAKNTVYLQMNSMKPEDTAVYYCAADWVYPPGLNDSVHFGEYDYWGQGSQVTVSS | low polyreactivity
QVQLVESGGGIVQAGGSLRLRCAASVRIFPCNTMGWYRQAPGKERELVAGINNGDRTYYADSVKGRFTISRDYAKNTVYLQMNILKPEDTAVYYCAADYVYFYFYGYDSWGQRTQVTVSS | low polyreactivity

Sequence | polyreactivity (PSR sort gate)
QVQLVESGGGIVQAGGSLRLSCAASGFIFKKYVMGWYRQAPGKERELVAGISRSGGSTYYADSVKGRFTISRENAKITVYFQMNSLKPEDTAVYYGAAYIYQSPTRGGGYWGQGTQVTVSS | high polyreactivity
QVQLVESGGGIVQAGGSLRLSCAASGFIFSNYAMGWYRQAPGKERELVAAISSGGTITKYADSVKGRFTISRDNAKNTVYLQMNSLKTEDTAVYYCNAVVRVRFRKNDYWGQGTQVTVSS | high polyreactivity
QVQLVESGGGIVQAGGSLRLSCAASGFTFAVNAMGWYRQAPGKERELVAGISRRGGNTYYADSVKGRFTISRDNAKNTVYLQMNSLKPEDTAVYYCARYSYSYWGQGTQVTVSS | high polyreactivity
QVQLVESGGGIVQAGGSLRLSCAASGFTFDYNTMGWYRQAPGKERELVAAISWSGGSTYYADSVKGRFTISRDNAKNTVYLQMNSLKPEDTAVYYCAAAWSYRYELYYCGQGTQVTVSS | low polyreactivity
QVQLVESGGGIVQAGGSLRLSCAASGFTFTRYAMGSYRQAPGKERELVATITKRGGSTYYADSVKGRFTISRDNAKNTVYLKMNSLKPEDTAVYYCAADGASRALYDYWGQGTQVTVSS | high polyreactivity
QVQLVESGGGIVQAGGSLRLSCAASGFTFVNNAIGWYRQAPGKERELVASITRRGGRTYYADSVKGRFTISRDNAKNTVYLQMNSLKPEDTAVYYCAVQGYGWGPLGYAEYDYWGQGTQVTVSS | high polyreactivity
QVQLVESGGGIVQAGGSLRLSCAASGFTIPRYAMGWYRQAPGKERELVAAITVGGGRTYYADSVKGRFTISRDNAKNTVYLQMNSLKPEDTAVYYCAADSHASTYDYWGQGTQVTVSS | low polyreactivity
QVQLVESGGGIVQAGGSLRLSCAASGIIFKYYAMGWYRQAPGKERELVAAISRIGGSTHYADSVKGRFTISRDNAKYTVYLQMNSLKPEDTAVSYCAARVLGRPLYFIYDYWGQGTQVTVSS | high polyreactivity
QVQLVESGGGIVQAGGSLRLSCAASGIIFRYYAMGWYRQAPGNERELVAVITGRGGGTYYADSVKGRFTISRDNAKNTVYLQMNSLKPEDTAVYYCAKDFTGHYPKGFDYWGQGTQLTVSS | low polyreactivity
QVQLVESGGGIVQAGGSLRLSCAASGIIFWDNAMGWYRQAPGKERELVASINYSGGSTYYADSVKGRFTISRDNAKNTVYLQMNSLKPEDTAVYYCAARTVTLDDWDYAYDYWGQGTQVTVSS | low polyreactivity
QVQLVESGGGIVQAGGSLRLSCAASGITFGRYVMGWYRQAPGKERELVAAISRSGGSTYYADSVKGRFTISRDNAKNTVYLQMNSLKPEDTAVYYCAADLRQTGYGWYDYWGQGTQVTVSS | high polyreactivity
QVQLVESGGGIVQAGGSLRLSCAASGLIFRRYTMGWYRQAPGKERELVAAIRNSGSSTDYADSVKGRFTISRDNAKNTVYLQMNSLKPEDTAVYYCAKRSARKLTYDSWGQGTQVTVSS | low polyreactivity
QVQLVESGGGIVQAGGSLRLSCAASGLILYWYAMGLYRQAPGKERYLVAAISISGGSTYYADSVKGRFTISRDNAKNTVYLQMNSLKPEDTAVYYCAAVYFYSWEGDGDYWGQGTQVTVSS | low polyreactivity
QVQLVESGGGIVQAGGSLRLSCAASGLTFSIYPIGWYRQAPGKERELVAAISWSGGSTYYADSVKGRFTISRDNAKNTVYLQMNSLKPEDTAVYYCAARVYRPWWSYDYWGQGTQVTVSS | high polyreactivity
QVQLVESGGGIVQAGGSLRLSCAASGLTICDYAMGWYRQAPGKERELVAAISSSGGRTYYADSVKGRFTISRDNAKNTVYLQMNSLKPEDTAVYYCAAQSKYYQYYSWGQGTQVTVSS | high polyreactivity
QVQLVESGGGIVQAGGSLRLSCAASGNNIGGNAMGWYRQAPGKERELVAAISNSGVRTYYADSVKGRFTISRDNAKNSVDLQMNSLKPEDTAVYYCYVLGNYYGKFDYWGQGTQVTVSS | high polyreactivity
